Experimental data as given in patent US20250320252A1 (Scripps Research, published 2025).
Where two headings read alike, the source gives them in different places. Bridge positions count the residues as written; N and C are the ends. Square brackets hold non-standard residues; d marks the D form. Ends that are not written are not given here. C20L5A = not defined here; L5A(S) = not defined here; Aib = CC(C)(N)C(=O)O

T1: cynomolgus monkey GIPR (cynomolgus monkey, UniProt A0A2K5VD75 22-466)
T1 sequence: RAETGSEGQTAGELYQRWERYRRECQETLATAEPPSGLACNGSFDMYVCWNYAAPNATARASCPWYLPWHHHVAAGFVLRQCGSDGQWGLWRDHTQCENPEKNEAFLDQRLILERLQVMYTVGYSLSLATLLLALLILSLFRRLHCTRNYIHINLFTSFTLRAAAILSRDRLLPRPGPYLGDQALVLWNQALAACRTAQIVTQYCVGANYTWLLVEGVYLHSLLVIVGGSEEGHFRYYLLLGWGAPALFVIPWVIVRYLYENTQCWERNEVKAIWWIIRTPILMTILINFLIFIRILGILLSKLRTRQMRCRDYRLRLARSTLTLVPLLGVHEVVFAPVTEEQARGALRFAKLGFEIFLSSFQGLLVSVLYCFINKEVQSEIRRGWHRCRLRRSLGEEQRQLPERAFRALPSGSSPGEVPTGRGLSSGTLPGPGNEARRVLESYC

T2: human GIP receptor (human, UniProt P48546 22-466)
T2 sequence (looked up): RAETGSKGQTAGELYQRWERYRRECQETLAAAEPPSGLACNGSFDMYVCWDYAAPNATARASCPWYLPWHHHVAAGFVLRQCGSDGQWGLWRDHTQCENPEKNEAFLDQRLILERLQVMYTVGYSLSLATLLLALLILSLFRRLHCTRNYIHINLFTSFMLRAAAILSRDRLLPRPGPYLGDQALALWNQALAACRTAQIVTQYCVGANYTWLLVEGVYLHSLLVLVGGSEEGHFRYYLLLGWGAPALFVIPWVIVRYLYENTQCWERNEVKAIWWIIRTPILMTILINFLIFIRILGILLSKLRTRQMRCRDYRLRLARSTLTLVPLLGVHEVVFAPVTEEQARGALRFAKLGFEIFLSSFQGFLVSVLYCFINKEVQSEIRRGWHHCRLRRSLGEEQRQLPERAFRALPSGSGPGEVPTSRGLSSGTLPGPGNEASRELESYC

T3: dog GLP1R (dog, UniProt A0A8I3NUR9 25-464)
T3 sequence: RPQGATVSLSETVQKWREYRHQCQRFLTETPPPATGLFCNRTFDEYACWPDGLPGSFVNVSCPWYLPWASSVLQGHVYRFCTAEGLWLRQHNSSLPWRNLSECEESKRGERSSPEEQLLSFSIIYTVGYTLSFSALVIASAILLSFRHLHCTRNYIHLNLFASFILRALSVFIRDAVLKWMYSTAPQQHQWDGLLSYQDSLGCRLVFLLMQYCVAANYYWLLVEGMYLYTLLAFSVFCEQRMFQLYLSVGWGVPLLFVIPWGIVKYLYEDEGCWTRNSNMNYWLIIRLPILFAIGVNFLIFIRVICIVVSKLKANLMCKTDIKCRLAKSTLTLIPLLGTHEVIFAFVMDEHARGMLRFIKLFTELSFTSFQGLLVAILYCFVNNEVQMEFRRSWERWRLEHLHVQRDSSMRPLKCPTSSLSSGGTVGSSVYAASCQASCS

T4: mouse GLP1R (mouse, UniProt O35659 22-463)
T4 sequence (looked up): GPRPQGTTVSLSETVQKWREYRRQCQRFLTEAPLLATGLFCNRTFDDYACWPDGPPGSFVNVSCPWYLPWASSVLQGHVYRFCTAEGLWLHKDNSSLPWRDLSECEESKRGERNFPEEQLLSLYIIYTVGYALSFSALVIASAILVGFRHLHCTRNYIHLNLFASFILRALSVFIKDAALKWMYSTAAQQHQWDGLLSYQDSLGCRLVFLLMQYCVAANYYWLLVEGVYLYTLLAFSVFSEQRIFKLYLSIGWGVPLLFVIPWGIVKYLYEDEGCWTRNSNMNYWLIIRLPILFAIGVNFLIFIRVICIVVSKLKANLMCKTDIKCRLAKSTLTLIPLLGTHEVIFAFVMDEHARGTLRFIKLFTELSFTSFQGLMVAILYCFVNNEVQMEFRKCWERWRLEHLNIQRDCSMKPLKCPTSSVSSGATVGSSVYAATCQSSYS

T5: mouse GIPR (mouse, UniProt Q0P543 19-460)
T5 sequence (looked up): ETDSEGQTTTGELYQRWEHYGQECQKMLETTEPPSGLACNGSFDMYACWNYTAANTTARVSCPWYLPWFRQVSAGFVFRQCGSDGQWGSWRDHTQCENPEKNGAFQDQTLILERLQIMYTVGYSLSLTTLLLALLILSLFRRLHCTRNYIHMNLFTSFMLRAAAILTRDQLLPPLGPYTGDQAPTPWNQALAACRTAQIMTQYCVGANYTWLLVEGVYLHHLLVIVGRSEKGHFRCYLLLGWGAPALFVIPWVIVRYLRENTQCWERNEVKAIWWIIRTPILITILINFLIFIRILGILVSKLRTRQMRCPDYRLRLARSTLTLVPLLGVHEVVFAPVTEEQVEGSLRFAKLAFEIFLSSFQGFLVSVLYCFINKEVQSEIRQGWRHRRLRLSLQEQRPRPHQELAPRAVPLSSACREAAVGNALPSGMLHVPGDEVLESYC

B1: mCMD307 (2050-K4) (peptide)
peptide: Y[Aib]EGTFTSDYSIYKDKQAA[Aib]KFVNWLLAGGPSSGAPPPS-NH2
modifications: bridge 14-21; not fully specified (bridges); also: K4 staple carries PEG-fatty acid

Assays:
Experiment in all cases: cell-based or functional assay
dog GIPR = dog GIPR (dog)
cynomolgus monkey GIPR = biological target: T1, cynomolgus monkey GIPR
human GIP receptor [1] = biological target: T2, human GIP receptor
dog GLP1R = biological target: T3, dog GLP1R
cynomolgus monkey GLP1R = cynomolgus monkey GLP1R (cynomolgus monkey, UniProt F8V479 24-463)
mouse GLP1R = biological target: T4, mouse GLP1R
mouse GIPR = biological target: T5, mouse GIPR
human GIP receptor [2] = biological target: T2, human GIP receptor; remark: listed apart in the source
human GIP receptor [3] = biological target: T2, human GIP receptor; remark: listed apart in the source
human GLP-1 receptor [4] = biological target: T6, human GLP-1 receptor (human, UniProt P43220 24-463)
human GIP receptor [5] = biological target: T2, human GIP receptor; remark: listed apart in the source
human GLP-1 receptor [6] = biological target: T6, human GLP-1 receptor; remark: listed apart in the source
human GLP-1 receptor [7] = biological target: T6, human GLP-1 receptor; remark: listed apart in the source
human GIP receptor [8] = biological target: T2, human GIP receptor; remark: listed apart in the source
human GLP-1 receptor [9] = biological target: T6, human GLP-1 receptor; remark: listed apart in the source

Row | Binder | In Vitro Potency GIPR EC50 [nM], Dog (dog GIPR) | In Vitro Potency GIPR EC50 [nM], Cyno (cynomolgus monkey GIPR) | EC50 of receptor-mediated cAMP synthesis, GIPR (nM), 02/19 (human GIP receptor [1]) | EC50 of receptor-mediated cAMP synthesis, GIPR (nM), 03/25 (human GIP receptor [1]) | EC50 of receptor-mediated cAMP synthesis, GIPR (nM), 03/26 (human GIP receptor [1]) | EC50 of receptor-mediated cAMP synthesis, GIPR (nM), average (human GIP receptor [1]) | In Vitro Potency GLP1R EC50 [nM], Dog (dog GLP1R) | In Vitro Potency GLP1R EC50 [nM], Cyno (cynomolgus monkey GLP1R) | In Vitro Potency GIPR EC50 [nM], Mouse (mouse GIPR) | also measured
1 | YAEGTFISDYSIAMDKIHQQDFVNWLLAQKGKKNDWKHNITQ-NH2 (ligand) [wild-type human GIP] | 0.7 nM | 0.69 nM |  |  |  |  |  |  |  | 
2 | Y[Aib]EGTFTSDYSIYLDKCAA[Aib]EFVCWLIAGGPSSGAPPPS-NH2 (linker 17-24 via C20L5A; not fully specified; reading uncertain) [mCMV268 (27I, C(17-24)-C20L5A)] |  | 0.16 nM | 0.05 nM | 0.04 nM | 0.03 nM | 0.04 nM | 1.48 nM | 0.22 nM | 0.26 nM | In Vitro Potency GLP1R EC50 [nM], Mouse (mouse GLP1R): 0.26 nM
3 | Y[Aib]EGTFTSDYSIYLDKCAA[Aib]EFVCWLIAGGPSSGAPPPS-NH2 (linker 17-24 via L5A(S); not fully specified; reading uncertain) [mCMZ371 (C(17-24)-L5A(S))] | 0.47 nM |  |  |  |  |  | 1.34 nM | 0.11 nM | 0.27 nM | In Vitro Potency GIPR EC50 [nM], 10% FBS (human GIP receptor [2]): 0.04 nM
4 | B1 |  |  | 0.04 nM | 0.01 nM | 0.01 nM | 0.02 nM |  |  |  | EC50 [nM] of receptor-mediated cAMP synthesis (human GIP receptor [3]): 0.01 nM; EC50 [nM] of receptor-mediated cAMP synthesis (human GLP-1 receptor [4]): 0.03 nM; EC50 [nM] of receptor-mediated cAMP synthesis (human GIP receptor [5]): 0.02 nM; EC50 [nM] of receptor-mediated cAMP synthesis (human GLP-1 receptor [6]): 0.01 nM; EC50 of receptor-mediated cAMP synthesis, GLP1R (nM), 02/19 (human GLP-1 receptor [7]): 0.01 nM; EC50 of receptor-mediated cAMP synthesis, GLP1R (nM), 3/25 (human GLP-1 receptor [7]): 0.01 nM; EC50 of receptor-mediated cAMP synthesis, GLP1R (nM), 03/26 (human GLP-1 receptor [7]): 0.01 nM; EC50 of receptor-mediated cAMP synthesis, GLP1R (nM), average (human GLP-1 receptor [7]): 0.01 nM; EC50 [nM] of receptor-mediated cAMP synthesis (human GIP receptor [8]): 0.01 nM; EC50 [nM] of receptor-mediated cAMP synthesis (human GLP-1 receptor [9]): 0.03 nM
